According to PMC9137774, “The ArsH Protein Product of the Paracoccus denitrificans ars Operon Has an Activity of Organoarsenic Reductase and Is Regulated by a Redox-Responsive Repressor” (Antioxidants, 2022):

Experiments:
[1] = biological target: T1, ArsR1 (Paracoccus denitrificans, UniProt A1B6S3); assay: size-exclusion chromatography: dimer to monomer; also EMSA and fluorescence anisotropy: release from operator DNA; assay type: binding; settings: 0.1 mM arsenite, 10 mM MOPS/0.1 M NaCl/15% glycerol pH 7.5
T1 construct: gene Pden_3136

[2] = test system: NC(=O)C1=CN([C@@H]2O[C@H](COP(=O)(O)OP(=O)(O)OC[C@H]3O[C@@H](n4cnc5c(N)ncnc54)[C@H](OP(=O)(O)O)[C@@H]3O)[C@@H](O)[C@H]2O)C=CC1; assay: purified protein; settings: co-substrate FMN (varied), 0.1 M sodium phosphate pH 7.0, 30 °C, sequential ternary-complex mechanism
[3] = test system: Cc1cc2nc3c(=O)[nH]c(=O)nc-3n(C[C@H](O)[C@H](O)[C@H](O)COP(=O)(O)O)c2cc1C; assay: purified protein; settings: NADPH varied 5-150 μM, 0.1 M sodium phosphate pH 7.0, 30 °C, sequential ternary-complex mechanism
[4] = biological target: Paracoccus denitrificans ArsH (Pden_3133 protein), recombinant N-His6-ArsH (Paracoccus denitrificans); assay: crystal structure; X-ray, 2.6 Å; sitting-drop vapor diffusion at 25 °C; molecular replacement with S. flexneri ArsH; four monomers in the asymmetric unit; interfaces analysed with PISA
[5] = biological target: Paracoccus denitrificans ArsR1 (product of pden_3136), recombinant with N-terminal hexahistidine tag (Paracoccus denitrificans); assay: SEC; Superose 12, 10 mM MOPS/0.1 M NaCl/15% glycerol pH 7.5, 0.5 mL/min; 500 μL of 40 μM ArsR1 loaded, untreated; calibrated with ribonuclease A, chymotrypsinogen A, ovalbumin and albumin
[6] = biological target: T2, ArsR2 (Paracoccus denitrificans, UniProt A1B7C2 1-120); assay: fluorescence anisotropy; Anisotropy: 10 mM MOPS, 0.1 M NaCl, 15% glycerol, pH 7.5 (Methods; Figure 9 legend says pH 7.0), 30 °C, 25 nM DNA; EMSA: 10 mM Tris-HCl, 50 mM NaCl, 0.5 mM EDTA, pH 8.0, room temperature, 10 µM DNA and 10 µM ArsR; settings: protein: recombinant; tags: N-terminal His6 (pET100/D-TOPO); chain copies: 2; label: 5'-FAM on strand 1; blunt
T2 sequence: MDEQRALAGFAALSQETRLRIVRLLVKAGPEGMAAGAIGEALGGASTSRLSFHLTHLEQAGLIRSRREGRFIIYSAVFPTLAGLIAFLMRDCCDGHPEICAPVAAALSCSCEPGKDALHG

[7] = biological target: T3, ArsR1 (Paracoccus denitrificans, UniProt A1B6S3 1-119); assay: as above; settings: protein: recombinant; tags: N-terminal His6 (pET100/D-TOPO); chain copies: 2; label: 5'-FAM on strand 1; blunt
T3 sequence: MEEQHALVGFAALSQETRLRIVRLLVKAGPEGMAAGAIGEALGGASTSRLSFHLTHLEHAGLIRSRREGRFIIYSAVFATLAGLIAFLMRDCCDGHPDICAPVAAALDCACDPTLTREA

Molecule: O[As](O)O [sodium arsenite]
- size-exclusion chromatography: dimer to monomer; also EMSA and fluorescence anis [1]: arsenite or diamide-treated ArsR eluted at the monomer size

Molecule: ArsH (Pden_3133; N-His6-ArsH) (Paracoccus denitrificans PD1222)
- Km [2]: 12 ± 2 µM
- kcat [2]: 12.6 ± 0.4 s⁻¹
- Km [3]: 9.3 ± 0.7 µM
- kcat [3]: 12.6 ± 0.4 s⁻¹

Molecule: Paracoccus denitrificans ArsH (Pden_3133 protein), recombinant N-His6-ArsH (from UniProt A0A9X7N4T4 1-238) (enzyme)
- stoichiometry N [4]: 4

Molecule: Paracoccus denitrificans ArsR1 (product of pden_3136), recombinant with N-terminal hexahistidine tag (natural protein)
- stoichiometry N [5]: 2

B1: PDNA1 (dsDNA)
DNA 1: CTCAACATATCTTGAGAGGTTGATTCG
DNA 2: CGAATCAACCTCTCAAGATATGTTGAG
- Kd [6]: 130 ± 20 nM
- Kd [7]: 9 ± 1 nM

B2: PDNA2 (dsDNA)
DNA 1: ATCAACATATCTTGAGAGGTTGATTCG
DNA 2: CGAATCAACCTCTCAAGATATGTTGAT
- Kd [6]: 140 ± 10 nM
- Kd [7]: 26 ± 4 nM
